The test addresses AbrBC, C-terminal multimerization domain of AbrB from Bacillus subtilis (residues 52-94) (Bacillus subtilis). Put plainly: SEC. (In general: In gel filtration, larger molecules generally elute earlier.)

For orientation: stoichiometry N means a count of units in the complex or per binding partner.

As to “AbrBC, C-terminal multimerization domain of AbrB from Bacillus subtilis (residues 52-94) (domain or fragment)”, the stoichiometry N was 2.

The values above are taken from PMC4252516.
